Assay results taken from a protein production outcome set (Wang et al. 2014).

Assay: label from the status in PepcDB records
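Also: failed if final PepcDB status was selected cloned or expressed and not failed if soluble or beyond.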

Sequence	protein production
MIGKTVIVGSKNMKEKILKFITSKFFVLGIQLLATIAVVYFTFKLDLVPTKYLIAGIVVLALLLAGFFGIIYSSEQKIKKGLSSKRGIVTKIISLLTSIILIAGCTYISRGNNFIENVSNATGQEYVVSVISLKNGKITKLKDLDSSKKIGVSYEKDTVTIAEALKDLDTEIGDHEYTKYDNYASLADALYEGKVDAIVVGEQYRTMLQTNHEEFNDVTKVLKSYAYDAKMEVTTKQTDVTENAFSIYVTGIDVYGSLKTVSRSDVNLIVTVNPKTKQILMTSIPRDCQINLHKNGKMDKLTHTGIYGTSETINTIQDLLEMKINYFARTNFSGMTNIVDALGGITVNSSEAFETLHGNYQISEGLNEMDGDKALCFVRERKRLKRGDFARGENQQKVLKAMLDKAMSPKIITNFNNILSAVEGCFETDMSDKEIKSLINMQLNDMADWKIINVQIEGEYQLMDDTFSMKGTNSDVMIPFESHIERVRELINKVEEGKEIKDSELKGLTH	failed
MIGLSKSRGALSMENQKMPEYETIRAAVAGEKWAVEKVVECYKDEIDRLSTVAVRQPDGSTKQEINEDMRQSITKKLIEALPQFPLEEMEKGNVRLEHHHHHH	not failed
MIGPMWSDVIDLRDFYATSQGQLTRRLIGRSLRALWPEVRGCRVLGLGYAVPFLQPFADEAERVVAMMPAPMGAVRWPSVGPVQGALADELELPLPDRSIDRLLLIHGLEFADHAHGLLRECWRVLADNGRLMVVVPNRRATWARMERSPFANGQPYSEGQLTRLLRDRLFTPIASSTALFMPPSRSRMVMGSASLLEQIGCRLFPAFGGVVVVDCAKQIAAPVLRSAVASRRVYVGVGLSQPLQGSSRAGFKNPAPFTGVDGS	failed
MIGREGVTTLRFTVKQQFITHKHTLYGVAAILLWGSLMALTRRVAEEFSPIGGAALIYTVSTLFLLFAMGMPRLKAGSSRYILIGGALFVSYEICLALALGMASDRLQAIEMSVINYLWPALTVLIAVLLSQRAVSFWVYPSVGLAFAGVAWTIVAEQGISLADFSARIATNPAVYAMALTGAFIWAIYCNVTQRLARGQNAIVLFFAATAATLWLQYALSNEPALSFTGSSMGTLLLTGIVMGSGYALWNVAILRGNMLLLATLSYFTPVISTLFSSLILGVVLGLSFWQGVIMVTFGSLICWWVTRESSSSTGEVPETPPPLKEQS	failed
MIHQIESVQAGKKIYFLSDFHLGVPSDEESWKREKKIIRFLDSITPAAQAVFLLGDIFDFWFEYKHVIPKGFARLQGKIAQLTDSGIPVYLYTGNHDLWMFGYLEKELGVTVFHKPIDWEIAGKKFLIGHGDGLGPGDFVYKCTKKVFVNPFFQWVFKMTPPAIGMGIAKFWSGKSRQHNTDDRFFEEKEFLWQYCKEQNVLKHRSYYIFGHRHMPLDLPVGDSARYVNIGDWIKFDTFAEFDGNELKLISWKETSEPYSL	failed
MIHRRCVGGRRNHGGRVAQGSSRSRLPQQGTPVTMSSTSSTPPWNVQRLPGADGRVFLVTGGNAGIGYFVAEQLSATGATVVLGSRNPAKAEAATASIRARVPGSRVRAVRLDLADLSSLETAVESLEVERLDAVVHNAGVALDDPPREETGDGHELMFGTNHLGHFALTQWLMPLLSAAPAARVVTMGSFAAKSERLDLDDLQSRKDYQPKRTYGRSKLAQMYFGVELDRRLRAAGSTVASVVVHPGGALDSLTPSRPPVHVRSTGARLSAAPAALLLQGKHAGAWPAVRAVLDPAVRGGQLWGPRVFGLRGEPRREPVWDHLADPSVAARLWDASCDLMGTDLSTISG	failed
MIIDEKRVQEIKNGETSLGIEFGSTRIKAVLIANDFSILASGSFEWETSLENGVWTYSIDEIWKGLQYSYQKLFAEVKEKYGVVLSKIGSIGFSAMMHGYMAFDNKGELLVPFRTWRNTMTEEAAKKLTDLFKFNIPERWSIAHLYQAILRNEPHVEKIDFLTTLAGYIHWQLTGEKVLGIGDASGMFPIDTQTHNYDKNMLETFKNLPEVKKHSLDLEKLLPKVLLAGENAGVLTLEGAKKLDVSGNLQPGIPLCPPEGDAGTGMVATNSVAPRTGNVSAGTSIFAMVVLEKPLNRVHPEIDIVTTPSGDLVAMVHANNGCSDLEAWVNIFQQFTEAINVDMRKDLLYMALYTQAFQGDPDCGGVLAYNYFAGENITGVSEGRPMVVRKAKSNFNLPNFMRAHLFTSLGALKIGMDILLKDEAVKLDKLLGHGGLFKTPIVGQAAVAGAVNAPVSVMETAGEGGAWGIALLASYLRSKENDSTLPEFLSKNVFAGYVAEEVQPDPKDVKGFEEFIERYKKGIAIEQAAVEHLILEHHHHHH	failed
MIIERLVGNLRDLNPLDFSVDHVDLEWFETRKKIARFKTRQGKDIAIRLKDAPKLGLSQGDILFKEEKEIIAVNILDSEVIHIQAKSVAEVAKICYEIGNRHAALYYGESQFEFKTPFEKPTLALLEKLGVQNRVLSSKLDSKERLTVSMPHSEPNFKVSLASDFKVVVK	not failed
MIIETERLLLRPFNEQDVDALYLMNSNPAMLKYIPTAPFTDREQARELFHNVILQDYQQRGFGRWAVEHKADNRVIGFCGPKFIPEFNEVEIGYRYFPEYWGKGIGTEAAEAALSVFPQFGIKQTIALILEGNLGSETVAKRVGMYWREHSEFMGHKINVYAKIL	failed
MIIHTLHRYILRNLLVGLAVGSVALIVLIWLINSLKFLDWFVNKGLSVATFLRLTLLLMPGFLTVFIPIALFAVVLFTYNRLAADRELIVMRAAGMGPWQLARPALALCAVLTGVGYWLTLSVVPAMEGAFEAIKYEVRGEVSSLVIKEGQFNQMKDGLIVYAGERAKDGRLIDLMIHDTTGKTSDLTVMAESGALVREGEGARILLINGNRQERNRQTGKVNFLYFDSYAVDLGGKAASTEMRFREERERPLSELISLKAGDRIDPDYPFTYEERHIRRMRMEAHLRLLRPLAHIGFLLIGLAAVLTGEFDRRGGNKRVILAVALVVLFQAGSLGAATVAKKSLDGLLLLDLMTLLPILVGWIWLVWPSERWGRRRLAPRRGRTAAPALGGGAGR	failed
MIIRIVQNIQRINKEGNAPLYISFYLGKEKVVIPCKLSVPTTKFDSKTGMLRGTNKEAKDINLIIERLKAKVNDILVKHRLKNLTLNKEAFMREYNNPSDFKSFHDFVASYMKTYSRRLEIGTFRHHKSCMRKFKEYCEGLQFHELTEDFLRDYLIYMKKTLCNADSTAQRNLSTIKIYVSAAIKKGYMENDPFKDFGVKRIKSNIDYLTEEELIKFISLYYDRRLPERLERTLGFFLFMCFTSLHISDARHVCLEQINNGILTYYRIKNRNCKPEAIKIPLSIPAFKIIEELQGKRKEGH	failed
MIIRQGFKFRLEASDTQGARLRVLCGHARFVWNQALAKCHEAADAEGEYVPRYETMAKWVTAWKREPDTEWLKEAYTDNLQQKLKDLDTGWQRYFKKVEGAQRPRFKKKGKSRDSVRFVNFQKYCKIDNRRVKLPAGLGWVRFRKSREIVGAIKNCTVGFEGGRWFISFQTEREVSEPAHPSASMIGVDMGVARFLTLSDGTFIEPVSAFKVNQGNLARAQRALARKVKFSANWQKQKAKINRLHSRIANLRRDTLHKASTQISNNHAMIVIEDLKVGNMSRSAKGDVDNPGVNVKAKSGLNRSILDQGWYEFRRQLEYKQAFRGGGVLAVPAHHTSQTCPECQHVSPDNRTSQARFECVKCGFKENADLVGAINIQARGHRVLACGEFGLPDSVKQEPVRNREEVAPSAAHAALGIPHRRC	failed
MIITKNISLPELYQEWLDLKIMPSNRSDVTKKKYLSRKVTLEKLFGDKPISQIRPSEYQRIMNNYGQRVSRNFLGRLNTGVKQSLQMAIADKVMIEDFTQNVELFSTVKLEHHHHHH	not failed
MIIYDQHVHTSFSFDSNEKMEDYMKLAGQDFVSTEHLEFNNPEVQNHDSIPDYTKYVAEIERLKKATGKRVHKGIEIGMSAGQADKIKDYLAHHTFDIKLLSFHQDGTKDFGSNMVSHLDPLQVTDQYYQLMWKGINEFHDADVLAHFDYGVRRLSLTSGQFSTTAGVLLTNIFKVAIQNNLAFELNTKSMYKYHNIGLYDYAIEIYKQLGGKRYTIGSDAHDATHYEDHFRDALDMLKAHDIHHINVYRQGAMTVVPIDDIPEDL	failed
MIKEFSDPLYGFVRVGEAGLRLIDSFPFQRLRYVKQLGLAYLVFPSAQHTRFEHSLGVYHITERICESLKVKEKELVKLAGLLHDLGHPPFSHTTEVLLPRERSHEDFTERVIKETEIYEILKQDYSHEDIERLVRITLGKPEDEEEKLLSEIITGEFGSDRMDYLRRDAYFCGVSYGFFDYDRLISTLRVYENKVVVDESGLRALENFLISRYFMYVQVYFHKVVRILSIHLVEFLKKLISQEDFTDINNFLRLNDAFVISELFKRKAFREDFERIFQRKHFKTLLSTENYEKFSETKERLLEKFPQEKVRFDEVEKEVYGGNIYVLSSEGLKKAHELSPLIASLKPIKLYRIYVDRQLWEKARSELKLS	not failed
MIKEWATVVSWQNGQALVSCDVKASCSSCASRAGCGSRVLNKLGPQTTHTIVVPCDEPLVPGQKVELGIAEGSLLSSALLVYMSPLVGLFLIASLFQLLFASDVAALCGAILGGIGGFLIARGYSRKFAARAEWQPIILSVALPPGLVRFETSSEDASQ	failed
MIKGEQKRYSEMTKEELQQEIAMLTEKARKAEQMGMVNEYAVYERKIAMAKAYMLNPADFHPGEIYEIEGAPGEYFKVRYLKGVFAWGWRLKGNGEEEALPISLLRKPNLPQS	not failed
MIKGTGHMIVNIANDRGMSIDSIRKTIKESVLIAYKKYFGSNENAFIKFDDDTGDLSVYAKKKIVKEVKDSLLEILEKDISKENIVEGDYAYIEINPKVFDRLSIQVAKQRTKNDLQGIEDNEILSEFKSKLNKVVIGYVQQNRNGDLYVNLGNTDGIIPKKYQSPREVYNLNDKIRVLVYNVKKGKNGIEVILSRTHPKFIEELLALEIPEIEEGIIKIHKIVRDPGYRIKVAVYSEKEEIDPVGPCIGQKGVRIQSIIKELEGEKIDIIPYSKDIKEFIKDSLTPSKIEHVYILDEDLHKALVVVSDDQLSLAIGKMGQNVRLANRLLDWAIDVKTSSQFAEMKANSEFKQETLEMFDKVMQDVVEEEQFEEISKISDLKLLDPSVISNLSKEGFDDINNFLQADEGVLFNLGVSYEKQEEINKILKEGMIIIANDNDESMEKVEEDEELLCPECGVVINENMTSCPGCKIGLSFEFEEE	failed
MIKLIYKPLWLILLIFFSLKAIAEDHYPTAPSPFYYVSDYTKTLNQQEWRTLEDALINNRSKTSSQIIVVMIPSTDGEEIARYAHNLFNKWGIGRVKHNENNGVLLLIAKNDRKLFIATGRGLESALPDAIAATIIRHHITPYFKQNLYAEGIASGLSAIMAAINGEFAAYDEYQSSNNQTLDGFFFFLFAAFVIFMMFRPTRNSQYISRSNTKPFQQILRHSRYHHDTSRDLYRGGSGDSFGGGSSGGGGAGGSWLEHHHHHH	failed
MIKQSPKYITPLNEQNVNKDNANLLVCPFAGASNSAFNSWRSTDISGLNCQLVNYSGHGCRFKEPAFNDIGLLANELITIIKKFYPPRHNSLLLCGHSMGAQVAFETAIQLEKNGWELSGLILSGCQAPHIQARRLLSDLNDDDFIQQLIAIGGCDAELIKQPQLLKQFMPLLRADFLATERYFFQKSTKRLFHTPVLLMYGSHDSEADKNEVEAWQDWIDKHCTINCIAGDHFYPITRPNTFCRFIIDFYHQ	failed
MIKSDDAGKLILRLALGILVIMHGLAKLSSGVGGIAGMLSSHGLPGFLAYFAYVGEIVGPLLIILGIYCRLGALLVVLNMVVAILLAHMGQLFSISNTGGWALELQGMFLFGALALAFMGAGRFSLAGSGGRWN	failed
MIKSTNIQAIGSGIMHQINNVYSLTPLSLPMELTPSCNEFYLKTWSEWEKNGTPGEQRNIAFNRLKICLQNQEAELNLSELDLKTLPDLPPQITTLEIRKNLLTHLPDLPPMLKVIHAQFNQLESLPALPETLEELNAGDNKIKELPFLPENLTHLRVHNNRLHILPLLPPELKLLVVSGNRLDSIPPFPDKLEGLALANNFIEQLPELPFSMNRAVLMNNNLTTLPESVLRLAQNAFVNVAGNPL	failed
MIKVEKEVSNDYIIKGFKHFTQLATEYFQGHPDCNAARKRMRDTIDANLQLKAELTAASYTEHTTLLSPKMQQIIWAHWGPPIISLSENHANELEHHHHHH	failed
